Laboratory results from patent publication US20030232013A1, “Therapeutic and diagnostic targeting of cancers cells with tumor homing peptides” (priority 2002, published 2003).
Like-named read-outs stand apart in the source and are kept apart here. Bridge positions count the residues as written; N and C are the ends. Peptide text beside a SMILES is read from it. * marks the point of attachment. DOTA = O=C(O)CN1CCN(CC(=O)O)CCN(CC(=O)*)CCN(CC(=O)O)CC1

Key:
[1] = tested on: T47D tumor bearing SCID mice; experiment: In vivo biodistribution in T47D tumor bearing SCID mice; conditions: 4 hours post-injection, n = 4
Text: (§1) In vivo iodistribution studies. Four- to 5-week old female ICR SCID ([…]) outbred mice were obtained from Taconic (Germantown, N.Y.). The mice were housed five animals per cage in sterile micro isolator cages in a temperature- and humidity-controlled room with a 12-hour light/12-hour dark schedule. The animals were fed autoclaved rodent chow (Ralston Purina Company, St. Louis, Mo.) and water ad libitum. Animals were housed one week prior to inoculation of tumor cells and anesthetized for injections with isoflurane (Baxter Healthcare Corp., Deerfield, Ill.) at a rate of 2.5% with 0.4L oxygen through a non-rebreathing anesthesia vaporizer.
(§2) Human breast cancer MB231 and T47D cells were injected on the bilateral subcutaneous (s.c.) flank with ˜5×10^6 cells in a suspension of 100 μl normal sterile saline per injection site. MB231 and T47D cells were allowed to grow in vivo two to three weeks post inoculation developing tumors ranging in sizes from 0.02-1.30 grams. The biodistribution and uptake of ^111In-DOTA-Phe^19-STh or ^111In-DOTA-6-Ahx-Phe^19-STh in tumor bearing SCID mice was studied. The mice (average weight, 25 g) were injected with aliquots (50-100 μl) of the radiolabeled peptide solution (55-75 kBq) in each animal via the tail vein. Tissues, organs and tumors were excised from the animals sacrificed at 1 hr, 4 hrs and 24 hrs p.i. For blocking studies, an access of non-radioactive 6-Ahx-Phe^19-STh (100 μg) was also injected along with the radiolabeled peptide solution. The radioactivity was measured in a NaI counter and the percent-injected dose per organ and the percent-injected dose per gram tissue were calculated (Tables 5 and 6). Animal studies were conducted in accordance with the highest standards of care as outlined in the NIH guide for Care and Use of Laboratory Animals and the Policy and Procedures for Animal Research at the Harry S. Truman Memorial VA Hospital and according to approved protocols.

[2] = as above; conditions: female, ICR SCID, mouse, iv, total radioactivity, n = 4; for tissue uptake at 1 h / dose excreted at 1 h: 1 hour post-injection; for tissue uptake at 24 h / dose excreted at 24 h: 24 hours post-injection
Text: as §1, §2

[3] = T47D tumor, T47D tumor, read-out: biodistribution, Tumor
[4] = blood, read-out: biodistribution, Blood
[5] = heart, read-out: biodistribution, Heart
[6] = kidney, read-out: biodistribution, Kidney
[7] = large intestine, read-out: biodistribution, Large Intestine
[8] = liver, read-out: biodistribution, Liver
[9] = lung, read-out: biodistribution, Lung
[10] = muscle, read-out: biodistribution, Muscle
[11] = pancreas, read-out: biodistribution, Pancreas
[12] = small intestine, read-out: biodistribution, Small Intestine
[13] = spleen, read-out: biodistribution, Spleen
[14] = stomach, read-out: biodistribution, Stomach
[15] = urine, read-out: biodistribution, Urine (Avg % ID)

CC(C)C[C@@H]1NC(=O)[C@H](CCC(=O)O)NC(=O)[C@@H]2CSSC[C@@H]3NC(=O)[C@H](C)NC(=O)[C@@H]4CCCN4C(=O)[C@H](CC(N)=O)NC(=O)[C@H](CSSC[C@H](NC(=O)[C@H](Cc4ccc(O)cc4)NC(=O)[C@H](CC(N)=O)NC(=O)[C@H](CO)NC(=O)[C@H](CO)NC(=O)[C@H](CC(N)=O)NC(=O)CN4CCN(CC(=O)O)CCN(CC(=O)O)CCN(CC(=O)O)CC4)C(=O)N2)NC(=O)[C@H](CSSC[C@@H](C(=O)N[C@@H](Cc2ccccc2)C(=O)O)NC(=O)CNC(=O)[C@H]([C@@H](C)O)NC3=O)NC1=O [^111In-DOTA-Phe^19-STh, metal not drawn] ({DOTA}-NSSNYCCELCCNPACTGCF-OH; disulfide 6-11, 7-15, 10-18)
biodistribution, Heart [1]: 0.00 ± 0.00 % ID/gm | tissue uptake at 1 h ([2]; T47D tumor, T47D tumor, Blocking (100 μg non-radioactive 6-Ahx-Phe^19-STh co-injected), read-out: biodistribution, Tumor): 0.43 ± 0.2 %ID/g | tissue uptake at 1 h [2, 3]: 0.67 ± 0.23 %ID/g | tissue uptake at 4 h ([2]; T47D tumor, T47D tumor, 4 hours post-injection, read-out: biodistribution, Tumor): 0.17 ± 0.16 %ID/g | tissue uptake at 24 h [2, 3]: 0.14 ± 0.12 %ID/g | tissue uptake at 1 h ([2]; blood, Blocking (100 μg non-radioactive 6-Ahx-Phe^19-STh co-injected), read-out: biodistribution, Blood): 0.57 ± 0.19 %ID/g | tissue uptake at 1 h [2, 4]: 0.82 ± 0.34 %ID/g | tissue uptake at 4 h ([2]; blood, 4 hours post-injection, read-out: biodistribution, Blood): 0.01 ± 0.01 %ID/g | tissue uptake at 24 h [2, 4]: 0.02 ± 0.01 %ID/g | dose excreted at 24 h ([2]; faeces, read-out: biodistribution, Feces (Avg % ID)): 1.4 ± 0.7% | tissue uptake at 1 h ([2]; heart, Blocking (100 μg non-radioactive 6-Ahx-Phe^19-STh co-injected), read-out: biodistribution, Heart): 0.13 ± 0.1 %ID/g | tissue uptake at 1 h [2, 5]: 0.15 ± 0.11 %ID/g | tissue uptake at 24 h [2, 5]: 0.08 ± 0.08 %ID/g | tissue uptake at 1 h ([2]; kidney, Blocking (100 μg non-radioactive 6-Ahx-Phe^19-STh co-injected), read-out: biodistribution, Kidney): 5.88 ± 1.47 %ID/g | tissue uptake at 1 h [2, 6]: 4.7 ± 1.4 %ID/g | tissue uptake at 4 h ([2]; kidney, 4 hours post-injection, read-out: biodistribution, Kidney): 2.02 ± 0.35 %ID/g | tissue uptake at 24 h [2, 6]: 1.04 ± 0.33 %ID/g | tissue uptake at 1 h ([2]; large intestine, Blocking (100 μg non-radioactive 6-Ahx-Phe^19-STh co-injected), read-out: biodistribution, Large Intestine): 0.17 ± 0.06 %ID/g | tissue uptake at 1 h [2, 7]: 0.57 ± 0.21 %ID/g | tissue uptake at 4 h ([2]; large intestine, 4 hours post-injection, read-out: biodistribution, Large Intestine): 1.74 ± 1.04 %ID/g | tissue uptake at 24 h [2, 7]: 0.1 ± 0.03 %ID/g | tissue uptake at 1 h ([2]; liver, Blocking (100 μg non-radioactive 6-Ahx-Phe^19-STh co-injected), read-out: biodistribution, Liver): 0.19 ± 0.04 %ID/g | tissue uptake at 1 h [2, 8]: 0.26 ± 0.12 %ID/g | tissue uptake at 4 h ([2]; liver, 4 hours post-injection, read-out: biodistribution, Liver): 0.06 ± 0.01 %ID/g | tissue uptake at 24 h [2, 8]: 0.03 ± 0.01 %ID/g | tissue uptake at 1 h ([2]; lung, Blocking (100 μg non-radioactive 6-Ahx-Phe^19-STh co-injected), read-out: biodistribution, Lung): 0.45 ± 0.16 %ID/g | tissue uptake at 1 h [2, 9]: 0.56 ± 0.19 %ID/g | tissue uptake at 4 h ([2]; lung, 4 hours post-injection, read-out: biodistribution, Lung): 0.09 ± 0.06 %ID/g | tissue uptake at 24 h [2, 9]: 0.06 ± 0.03 %ID/g | tissue uptake at 1 h ([2]; muscle, Blocking (100 μg non-radioactive 6-Ahx-Phe^19-STh co-injected), read-out: biodistribution, Muscle): 0.18 ± 0.08 %ID/g | tissue uptake at 1 h [2, 10]: 0.19 ± 0.08 %ID/g | tissue uptake at 4 h ([2]; muscle, 4 hours post-injection, read-out: biodistribution, Muscle): 0.06 ± 0.04 %ID/g | tissue uptake at 24 h [2, 10]: 0.04 ± 0.03 %ID/g | tissue uptake at 1 h ([2]; pancreas, Blocking (100 μg non-radioactive 6-Ahx-Phe^19-STh co-injected), read-out: biodistribution, Pancreas): 0.16 ± 0.07 %ID/g | tissue uptake at 1 h [2, 11]: 0.21 ± 0.09 %ID/g | tissue uptake at 4 h ([2]; pancreas, 4 hours post-injection, read-out: biodistribution, Pancreas): 0.04 ± 0.05 %ID/g | tissue uptake at 24 h [2, 11]: 0.02 ± 0.03 %ID/g | tissue uptake at 1 h ([2]; small intestine, Blocking (100 μg non-radioactive 6-Ahx-Phe^19-STh co-injected), read-out: biodistribution, Small Intestine): 0.25 ± 0.1 %ID/g | tissue uptake at 1 h [2, 12]: 1.37 ± 0.55 %ID/g | tissue uptake at 4 h ([2]; small intestine, 4 hours post-injection, read-out: biodistribution, Small Intestine): 0.44 ± 0.07 %ID/g | tissue uptake at 24 h [2, 12]: 0.09 ± 0.02 %ID/g | tissue uptake at 1 h ([2]; spleen, Blocking (100 μg non-radioactive 6-Ahx-Phe^19-STh co-injected), read-out: biodistribution, Spleen): 0.12 ± 0.07 %ID/g | tissue uptake at 1 h [2, 13]: 0.19 ± 0.16 %ID/g | tissue uptake at 4 h ([2]; spleen, 4 hours post-injection, read-out: biodistribution, Spleen): 0.13 ± 0.15 %ID/g | tissue uptake at 24 h [2, 13]: 0.12 ± 0.08 %ID/g | tissue uptake at 1 h ([2]; stomach, Blocking (100 μg non-radioactive 6-Ahx-Phe^19-STh co-injected), read-out: biodistribution, Stomach): 0.61 ± 0.64 %ID/g | tissue uptake at 1 h [2, 14]: 0.53 ± 0.47 %ID/g | tissue uptake at 4 h ([2]; stomach, 4 hours post-injection, read-out: biodistribution, Stomach): 0.17 ± 0.06 %ID/g | tissue uptake at 24 h [2, 14]: 0.02 ± 0.01 %ID/g | dose excreted at 1 h ([2]; urine, Blocking (100 μg non-radioactive 6-Ahx-Phe^19-STh co-injected), read-out: biodistribution, Urine (Avg % ID)): 93.1 ± 1.5% | dose excreted at 1 h [2, 15]: 86.4 ± 5% | dose excreted at 4 h ([2]; urine, 4 hours post-injection, read-out: biodistribution, Urine (Avg % ID)): 96.1 ± 1% | dose excreted at 24 h [2, 15]: 97.8 ± 0.7%
